The values below come from publication PMC3432171.

This series deals with T1, VDRm-NT (vitamin D receptor, flexible loop deleted, no His-tag) (rat, UniProt P13053 1-423, del165-211).
T1 sequence: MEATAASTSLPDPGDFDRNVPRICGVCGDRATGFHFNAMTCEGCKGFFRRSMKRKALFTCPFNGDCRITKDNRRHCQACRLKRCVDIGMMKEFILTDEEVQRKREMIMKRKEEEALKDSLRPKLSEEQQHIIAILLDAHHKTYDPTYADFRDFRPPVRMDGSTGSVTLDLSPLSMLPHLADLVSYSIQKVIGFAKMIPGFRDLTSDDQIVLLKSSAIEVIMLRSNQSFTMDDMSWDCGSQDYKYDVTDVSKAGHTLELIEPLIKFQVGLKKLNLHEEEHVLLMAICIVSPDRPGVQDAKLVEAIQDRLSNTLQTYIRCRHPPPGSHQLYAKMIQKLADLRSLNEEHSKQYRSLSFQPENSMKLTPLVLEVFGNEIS
Put plainly: EMSA. A general note: Mobility shift assays separate free from complexed probe on a gel.

B1: VDRE duplex (dsDNA)
DNA 1: CACGGTTCACGAGGTTCACAC
DNA 2: GTGTGAACCTCGTGAACCGTG
As to B1, the binding result is “binds”.
